Experimental data taken from the supplement of paper PMC6755084.

These sequences were tested on F1*sub RNA substrate (template-directed ligation) (assay: fraction ligated after 30 min (ligated reads / total reads); higher = more ligase activity; sequences stand for … in GAGACCGCAACTGAAAAGTTGT…AGTTCTGCACGTAGAAGCAAAAGGC). Settings: 42 °C.
Protocol: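 Chip-synthesised pool of F1* ligase ribozyme variants (all single and double substitutions, single, double and triple deletions in the catalytic core and GAA bulge, plus designed variants) was transcribed with T7 and reacted as a pool with excess substrate F1*sub for 30 min at 42 C in 50 mM EPPS pH 8.5, 25 mM MgCl2. Ligated and unligated bands were separated by PAGE, barcoded by RT and deep sequenced; fraction ligated = ligated reads / total reads per variant, relative activity = FL / FL of wild type (0.826). Sequences are the DNA template of the ribozyme.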
For “TATCACTTGTCGTAAAACTTTGATGGGTTGA [3d2061]”, the fraction ligated was 0.781. In the case of TTCACTTGTCGTAGACACTTTGATGGGTTGA [3d436], the fraction ligated is reported as 0.258. In the case of “TATCACTTGTCGTAAACACTTGATGGGTTGA [3d2082]”, the fraction ligated is reported as 0.727. With “TATCACTGCGTAAACACTTTGGATGGGTTGA [3d1331]” the fraction ligated was 0.838. Sequence “TATCACTTTCGTAGACACTTTGGATGGGTTG [3d1518]” has a fraction ligated of 0.786. Work on TACACTTGTCGTAGACACTTTGGATGGGTTA [3d670] yielded a fraction ligated of 0.0913. For “TATCACTGTCGTAAGACATTTGGTGGGTTGA [3d1435]”, the fraction ligated was 0.752. TATACTGTCGTAGACACTTTGGATGGGTTGA [3d783] showed a fraction ligated of 0.757. Work on “TATCATTCGTAAGACACTTTGGATGGGTTGA [3d1122]” yielded a fraction ligated of 0.776. “TATCACTTGTCGTAAGCACTTGGATGGGTTGA [2d247]” showed a fraction ligated of 0.756. “TATCACTTGTGAGACACTTTGGATGGGTTGA [3d1718]” was tested, and the fraction ligated was 0.841. Work on “TATCATTGTCGTAAGACACTTTGGGGGTTGA [3d1282]” yielded a fraction ligated of 0.0386. In the case of TACACTTGTGTAAGACACTTTGGATGGTTGA [3d629], the fraction ligated is reported as 0.141. For “TATCATTGTCGAAGACACTTTGGAGGGTTGA [3d1210]”, the fraction ligated was 0.0625. TTCACGTCGTAAGACACTTTGGATGGGTTGA [3d336] gave a fraction ligated of 0.658. In the case of TATACTTGTGTAAACACTTTGGATGGGTTGA [3d831], the fraction ligated is reported as 0.799. “TATCACTTGTCGTAAGACCTTGGATGGGTTGA [2d262]” was tested, and the fraction ligated was 0.791. “TATCACGTCGTAAACACTTTGGATGGGTTGA [3d1299]” gave a fraction ligated of 0.787. TACACTTGTCGAAGACACTTGGATGGGTTGA [3d652] gave a fraction ligated of 0.109. With “TATCACTTGTCGTAAGACACTTTGAGGGTTGA [2d285]” the fraction ligated was 0.00683. “TATCACTGCGTAAGACATTTGGATGGGTTGA [3d1335]” gave a fraction ligated of 0.854. TATACTTGTCGAGACACTTTGGATGGGTTGA [3d857] was tested, and the fraction ligated was 0.704. With “TATCACTTGTCTAGAACTTTGGATGGGTTGA [3d1826]” the fraction ligated was 0.796. “TATCACTTGTCGAAGACTTTGGATGGGTTGA [3d1925]” showed a fraction ligated of 0.784. Work on “TATCACTTGTCTAAACACTTTGGATGGTTGA [3d1843]” yielded a fraction ligated of 0.288. “TATCACTTTGAAGACACTTTGGATGGGTTGA [3d1465]” showed a fraction ligated of 0.819. With ATCACTTGTCGTAAGACACTTTATGGGTTGA [3d260] the fraction ligated was 0.0125. Work on “TATCACTTCGTAAGACCTTTGGATGGGTTGA [3d1318]” yielded a fraction ligated of 0.802. Work on “TATCACTTGTCTAAGACACTTTGGAGGGTTA [3d1896]” yielded a fraction ligated of 0.134. Sequence “TATCACTTGTCGAAGAATTTGGATGGGTTGA [3d1935]” has a fraction ligated of 0.776. “TATCATTGTCGTAAGACACTTTGGATGGTTGA [2d125]” was tested, and the fraction ligated was 0.456. With TACACTTGTGTAAGACACTTTGATGGGTTGA [3d626] the fraction ligated was 0.0413. “TATCACTGTCGTAAGACACTTTGGGGGTTGA [3d1453]” gave a fraction ligated of 0.0319. With TACACTTGCGTAAGACACTTTGGTGGGTTGA [3d612] the fraction ligated was 0.0235. “TATCACTTCGTAAGACACTTTGGATGGGTTA [3d1325]” showed a fraction ligated of 0.706. TTCACTTGTCGTAAGCACTTTGATGGGTTGA [3d456] was tested, and the fraction ligated was 0.0811. TTCACTTGCGTAAGACACTTGGATGGGTTGA [3d380] gave a fraction ligated of 0.182. “TATCACTTGCGTAAGACACTTTGGTGGGTTG [3d1697]” was tested, and the fraction ligated was 0.038. With “TATCATTGTCGTAAGACACTTTGATGGGTTG [3d1281]” the fraction ligated was 0.765. With “TATCACTTGTCGTAAGACATGGATGGGTTGA [3d2207]” the fraction ligated was 0.808. “TATCCTTGTCGAAGACACTTTGGATGGTTGA [3d1039]” gave a fraction ligated of 0.0395. “TATCACTGTCGTAAGACACTTTGGAGGGTTG [3d1459]” showed a fraction ligated of 0.0454. Sequence ATCACTTGTCGTAAACACTTTGGATGGGTTGA [2d13] has a fraction ligated of 0.78. For TTCATTGTCGTAAGACACTTTGGTGGGTTGA [3d331], the fraction ligated was 0.106. With “TATCATTGCGTAAGACACTTTGGTGGGTTGA [3d1167]” the fraction ligated was 0.0667. “TATCACTTGTCGTAAGACCTTTGGAGGGTTGA [2d265]” gave a fraction ligated of 0.072. TTCACTTGTCGTAAGACACTTTATGGGTTGA [3d491] was tested, and the fraction ligated was 0.00731. Work on “TATCACTTTCGTAAGCACTTTGGATGGTTGA [3d1536]” yielded a fraction ligated of 0.0345. “TATCATTGTCGTAAGACATTTGGAGGGTTGA [3d1265]” gave a fraction ligated of 0.23. Work on ATATTGTCGTAAGACACTTTGGATGGGTTGA [3d47] yielded a fraction ligated of 0.0915. “TATCATTGTCGTAAGACATTTGATGGGTTGA [3d1263]” showed a fraction ligated of 0.787. In the case of TACACTTGTCGTAAGACACTTTGATGGTTGA [3d724], the fraction ligated is reported as 0.0498. For “TATCATTGTCGTAAGCACTTTGATGGGTTGA [3d1241]”, the fraction ligated was 0.58. For TACATTGCGTAAGACACTTTGGATGGGTTGA [3d549], the fraction ligated was 0.0211. “TATCCTTGTCGTAAGAATTTGGATGGGTTGA [3d1075]” showed a fraction ligated of 0.79. “TATCACTTGTGTAAGCACTTTGGATGGTTGA [3d1761]” showed a fraction ligated of 0.256. Sequence TACCTTGTCGTAAGAACTTTGGATGGGTTGA [3d537] has a fraction ligated of 0.253. Sequence ACACTTGTCGTAAGACACTTTGATGGGTTGA [3d40] has a fraction ligated of 0.0824. “TATCACTTTCGTAAGAATTTGGATGGGTTGA [3d1539]” gave a fraction ligated of 0.835. Sequence “TATCACTTGTCGTAAGACCTTTGGTGGGTTG [3d2199]” has a fraction ligated of 0.0351. “TATCACTGTCGAAGACACTTGGATGGGTTGA [3d1378]” gave a fraction ligated of 0.812. TATACTTGTCGTAAGACTTTGGATGGGTTGA [3d893] showed a fraction ligated of 0.758. With ATCACTGTCGTAGACACTTTGGATGGGTTGA [3d111] the fraction ligated was 0.824. Sequence TACACTTGTCGAAGACACTTTGGATGGGTTGA [2d55] has a fraction ligated of 0.603. Sequence TATCTTGTCGTAAGACACTTTGGAGGGTTGA [3d754] has a fraction ligated of 0.0612. For “TATCACTTGTCGTAAGACCTTTGGTGGGTTA [3d2198]”, the fraction ligated was 0.0357. In the case of “TATCACTTGCGTAAGACATTGGATGGGTTGA [3d1674]”, the fraction ligated is reported as 0.802. Work on TTCACTTGTCGTAAGAACTTTGGATGGTTGA [3d467] yielded a fraction ligated of 0.279. Work on “TATCATTGTCGTAGACACTTTGGAGGGTTGA [3d1223]” yielded a fraction ligated of 0.0919. With “TATCACTTGTCAAGACACTTGGATGGGTTGA [3d1816]” the fraction ligated was 0.76. In the case of TATCTTGTCGTAAGACACTTTGATGGGTTGA [3d752], the fraction ligated is reported as 0.763. TATACTTGTCGTAAGCACTTTGGATGGGTTGA [2d79] showed a fraction ligated of 0.778. TTCACTTGTCGTAGACACTTTGGATGGTTGA [3d439] gave a fraction ligated of 0.57. TACCTTGTCGTAAGACACTTTGGATGGGTTGA [2d48] was tested, and the fraction ligated was 0.772. In the case of “TATCACTTGTCGTAGACACTTTGATGGGTTGA [2d228]”, the fraction ligated is reported as 0.789. Work on “TATCATTGTGTAAGACACTTTGGAGGGTTGA [3d1183]” yielded a fraction ligated of 0.0175. Work on TATCACTTGCGTAAGACACTTTGGATGGGTTGA [1d9] yielded a fraction ligated of 0.85. Work on TATACTTGTCGTAAGAACTTTGGATGGGTTA [3d909] yielded a fraction ligated of 0.0459. For “TATCACTGTCGTAAACACTTTGGATGGTTGA [3d1405]”, the fraction ligated was 0.166. “TATCATTGTCTAAGACACTTTGGATGGGTTA [3d1199]” showed a fraction ligated of 0.477. Work on TATCCTGTCGTAAGACACTTTGGATGGGTTA [3d966] yielded a fraction ligated of 0.436. TACACTTGTCAAGACACTTTGGATGGGTTGA [3d632] gave a fraction ligated of 0.167. ATCACTTGTCGTAAGACACTTTGGATGGTTA [3d273] showed a fraction ligated of 0.68. In the case of TACACTTGTGTAAGACACTTTGGATGGGTTA [3d630], the fraction ligated is reported as 0.0333. Work on “TATCACTTGCGTAAACACTTTGGATGGTTGA [3d1646]” yielded a fraction ligated of 0.149. “TATCCTTGTCGTAGACACTTTGGTGGGTTGA [3d1050]” gave a fraction ligated of 0.26. With ATCACTTGTCGTAGACACTTTGATGGGTTGA [3d205] the fraction ligated was 0.715. ATCACTGTCGTAAGACACTTTGGAGGGTTGA [3d120] was tested, and the fraction ligated was 0.148. In the case of “TATCATTGTCGTAAGACATTTGGATGGGTTG [3d1268]”, the fraction ligated is reported as 0.766. TATCCTGTCGTAAGAACTTTGGATGGGTTGA [3d958] was tested, and the fraction ligated was 0.803. “TATCACTTTCGTAAGACTTTGGATGGGTTGA [3d1529]” showed a fraction ligated of 0.823. “TATCACTTGTCGTAGAACTTGGATGGGTTGA [3d2014]” was tested, and the fraction ligated was 0.845. “TATCACTTGTCGTAAGCACTTTGAGGGTTGA [3d2137]” was tested, and the fraction ligated was 0.086. TCACTTGTCGTAAGACACTTTGGTGGGTTGA [3d19] gave a fraction ligated of 0.0723. Sequence “TATCACTGTCTAAGACACTTTGGATGGGTTG [3d1371]” has a fraction ligated of 0.8. In the case of ATCATTGTCGTAAGACACTTTGGAGGGTTGA [3d101], the fraction ligated is reported as 0.12. Sequence “TATCACTTGTCTAAGACATTGGATGGGTTGA [3d1871]” has a fraction ligated of 0.796. Work on “TATCACTTGCGTAAGACACTTTGATGGTTGA [3d1691]” yielded a fraction ligated of 0.1. TTCCTGTCGTAAGACACTTTGGATGGGTTGA [3d298] showed a fraction ligated of 0.746. “TATCACTGTCGTAAGACACTTGGAGGGTTGA [3d1443]” gave a fraction ligated of 0.0736. For TATACGTCGTAAGACACTTTGGATGGGTTGA [3d777], the fraction ligated was 0.735. For TTCCTTGTCGTAAGACACTTTGGATGGGTTG [3d316], the fraction ligated was 0.731. “TATCACTTGTCGTAAGCACTTTATGGGTTGA [3d2135]” was tested, and the fraction ligated was 0.134. In the case of TTCACTTGTTAAGACACTTTGGATGGGTTGA [3d387], the fraction ligated is reported as 0.775. For “TATCCTTGTCGTAAGCACTTTGGAGGGTTGA [3d1071]”, the fraction ligated was 0.0111. With “TATCACGTCGTAAGACACTTTGGATGGTTGA [3d1308]” the fraction ligated was 0.361. In the case of “TATCACTTGTCGTAACACTTTGATGGGTTGA [3d1997]”, the fraction ligated is reported as 0.464. With TTCACTTGTCGTAAACACTTTGGATGGGTTG [3d451] the fraction ligated was 0.177.
